From PMC2172085

Molecular target: YFP-hDcp2 (human), Q8IU60
Assay: FRET or BRET
Settings: remark: other sources report otherwise

B1: CFP-hDcp1a, Q9NPI6 1-582 (natural protein)
chain: MEALSRAGQEMSLAALKQHDPYITSIADLTGQVALYTFCPKANQWEKTDIEGTLFVYRRSASPYHGFTIVNRLNMHNLVEPVNKDLEFQLHEPFLLYRNASLSIYSIWFYDKNDCHRIAKLMADVVEEETRRSQQAARDKQSPSQANGCSDHRPIDILEMLSRAKDEYERNQMGDSNISSPGLQPSTQLSNLGSTETLEEMPSGSQDKSAPSGHKHLTVEELFGTSLPKEQPAVVGLDSEEMERLPGDASQKEPNSFLPFPFEQLGGAPQSETLGVPSAAHHSVQPEITTPVLITPASITQSNEKHAPTYTIPLSPVLSPTLPAEAPTAQVPPSLPRNSTMMQAVKTTPRQRSPLLNQPVPELSHASLIANQSPFRAPLNVTNTAGTSLPSVDLLQKLRLTPQHDQIQTQPLGKGAMVASFSPAAGQLATPESFIEPPSKTAAARVAASASLSNMVLAPLQSMQQNQDPEVFVQPKVLSSAIPVAGAPLVTATTTAVSSVLLAPSVFQQTVTRSSDLERKASSPSPLTIGTPESQRKPSIILSKSQLQDTLIHLIKNDSSFLSTLHEVYLQVLTKNKDNHNL
apparent FRET efficiency (one experiment, foci in the bleached region): 17%
average apparent FRET efficiency: 15%
